Data set [1] concerns the target Rad50 E1235Q (MREQ complex);Mre11 (Saccharomyces cerevisiae;Saccharomyces …, UniProt P12753;P32829 1-1312;1-692, E1235Q|). Briefly: cryo-EM 3.2 A.
Data set [2] has as its target T1, S. cerevisiae Rad50-E1235Q (S. cerevisiae, UniProt P12753, E1235Q).
T1 sequence: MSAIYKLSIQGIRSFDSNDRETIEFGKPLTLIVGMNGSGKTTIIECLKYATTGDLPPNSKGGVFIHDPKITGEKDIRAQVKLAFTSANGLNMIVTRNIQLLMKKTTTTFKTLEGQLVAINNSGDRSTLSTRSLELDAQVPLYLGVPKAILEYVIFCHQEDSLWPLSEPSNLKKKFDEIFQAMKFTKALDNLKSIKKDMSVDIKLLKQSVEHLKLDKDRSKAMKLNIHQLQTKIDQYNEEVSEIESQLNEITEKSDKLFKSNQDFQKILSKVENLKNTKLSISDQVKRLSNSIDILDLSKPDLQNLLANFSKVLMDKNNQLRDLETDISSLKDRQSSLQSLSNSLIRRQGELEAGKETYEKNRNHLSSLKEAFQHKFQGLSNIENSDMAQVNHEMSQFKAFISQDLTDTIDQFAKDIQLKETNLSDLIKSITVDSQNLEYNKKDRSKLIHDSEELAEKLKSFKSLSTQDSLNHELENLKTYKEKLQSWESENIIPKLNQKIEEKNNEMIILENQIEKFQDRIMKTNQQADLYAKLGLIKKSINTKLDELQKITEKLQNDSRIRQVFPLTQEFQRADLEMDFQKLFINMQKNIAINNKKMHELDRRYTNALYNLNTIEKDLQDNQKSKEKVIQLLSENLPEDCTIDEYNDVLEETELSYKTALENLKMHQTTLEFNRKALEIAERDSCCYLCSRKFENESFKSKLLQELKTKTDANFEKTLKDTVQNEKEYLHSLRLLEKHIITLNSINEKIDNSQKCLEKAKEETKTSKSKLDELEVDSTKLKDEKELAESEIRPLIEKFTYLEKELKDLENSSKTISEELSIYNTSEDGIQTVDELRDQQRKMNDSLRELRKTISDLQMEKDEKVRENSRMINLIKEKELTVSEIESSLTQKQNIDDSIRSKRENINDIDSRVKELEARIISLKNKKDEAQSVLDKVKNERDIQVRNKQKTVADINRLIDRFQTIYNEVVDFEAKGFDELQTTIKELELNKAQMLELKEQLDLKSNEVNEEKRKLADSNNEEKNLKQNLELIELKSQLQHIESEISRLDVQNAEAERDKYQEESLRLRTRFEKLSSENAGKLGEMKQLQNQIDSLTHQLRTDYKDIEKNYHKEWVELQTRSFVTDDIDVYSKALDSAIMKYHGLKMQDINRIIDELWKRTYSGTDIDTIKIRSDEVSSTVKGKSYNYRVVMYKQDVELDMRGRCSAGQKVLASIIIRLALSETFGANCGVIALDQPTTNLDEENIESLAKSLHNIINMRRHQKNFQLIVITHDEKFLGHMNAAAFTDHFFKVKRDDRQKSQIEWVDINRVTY
Briefly: cryo-EM structure.

B1: 83-mer dsDNA (cryo-EM) (dsDNA)
DNA 1: TTGATAAGAGGTCATTTTTGCGGATGGCTTAGAGCTTAATTGCTGAATCTGGTGCTGTAGCTCAACATGTTTTAAATATGCAA
DNA 2: TTGCATATTTAAAACATGTTGAGCTACAGCACCAGATTCAGCAATTAAGCTCTAAGCCATCCGCAAAAATGACCTCTTATCAA
As to B1, in data set [1], the binding result is listed as “binds”.

B2: S. cerevisiae Mre11 with a C-terminal 1xFLAG tag (natural protein)
chain: MDYPDPDTIRILITTDNHVGYNENDPITGDDSWKTFHEVMMLAKNNNVDMVVQSGDLFHVNKPSKKSLYQVLKTLRLCCMGDKPCELELLSDPSQVFHYDEFTNVNYEDPNFNISIPVFGISGNHDDASGDSLLCPMDILHATGLINHFGKVIESDKIKVVPLLFQKGSTKLALYGLAAVRDERLFRTFKDGGVTFEVPTMREGEWFNLMCVHQNHTGHTNTAFLPEQFLPDFLDMVIWGHEHECIPNLVHNPIKNFDVLQPGSSVATSLCEAEAQPKYVFILDIKYGEAPKMTPIPLETIRTFKMKSISLQDVPHLRPHDKDATSKYLIEQVEEMIRDANEETKQKLADDGEGDMVAELPKPLIRLRVDYSAPSNTQSPIDYQVENPRRFSNRFVGRVANGNNVVQFYKKRSPVTRSKKSGINGTSISDRDVEKLFSESGGELEVQTLVNDLLNKMQLSLLPEVGLNEAVKKFVDKDEKTALKEFISHEISNEVGILSTNEEFLRTDDAEEMKALIKQVKRANSVRPTPPKENDETNFAFNGNGLDSFRSSNREVRTGSPDITQSHVDNESRITHISQAESSKPTSKPKRVRTATKKKIPAFSDSTVISDAENELGDNNDAQDDVDIDENDIIMVSTDEEDASYGLLNGRKTKTKTRPAASTKTASRRGKGRASRTPKTDILGSLLAKKRK
Regarding B2, in data set [2], the binding result was “binds”.
